Test results: patent US20190048071A1 (MorphoSys, published 2019)
Where two headings read alike, the source gives them in different places.

T1: Cynomolgus monkey IL-17C (cynomolgus monkey, UniProt Q9P0M4 19-197 (human entry), limits assumed, biotinylated in the receptor inhibition assay (ECL biotinylation module))
T1 construct: Produced in-house; also called cynomolgus IL-17C
T1 chain: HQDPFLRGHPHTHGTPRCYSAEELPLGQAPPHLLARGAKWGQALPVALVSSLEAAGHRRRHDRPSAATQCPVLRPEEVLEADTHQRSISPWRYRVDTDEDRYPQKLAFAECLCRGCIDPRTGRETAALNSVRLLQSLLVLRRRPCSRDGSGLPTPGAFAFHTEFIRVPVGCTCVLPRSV

T2: Human IL-17C (human, UniProt Q9P0M4 19-197, biotinylated in the receptor inhibition assay (ECL biotinylation module))
T2 sequence: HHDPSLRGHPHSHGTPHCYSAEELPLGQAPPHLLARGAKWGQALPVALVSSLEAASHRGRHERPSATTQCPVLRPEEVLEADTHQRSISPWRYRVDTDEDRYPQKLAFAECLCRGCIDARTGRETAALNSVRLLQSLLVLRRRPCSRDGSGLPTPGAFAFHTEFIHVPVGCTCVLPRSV

T3: Mouse IL-17C (mouse, UniProt Q8K4C5 17-194, biotinylated in the receptor inhibition assay (ECL biotinylation module))
T3 sequence: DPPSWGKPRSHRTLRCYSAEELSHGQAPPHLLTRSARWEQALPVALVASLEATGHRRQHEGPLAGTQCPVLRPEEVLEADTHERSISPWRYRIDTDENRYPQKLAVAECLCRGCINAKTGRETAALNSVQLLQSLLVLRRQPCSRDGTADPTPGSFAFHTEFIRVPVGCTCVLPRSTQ


Tests used:
[1] = target: T1, Cynomolgus monkey IL-17C; assay: MSD receptor inhibition assay, IgG format: IgG pre-incubated with biotinylated cynomolgus IL-17C, binding to coated mouse IL17RE/Fc
Method: (§1) Purified IL-17C specific Fabs or IgGs, respectively were tested for its capacity to inhibit the binding of IL-17C to its specific receptor IL-17RE. Therefore MA6000 384-well plates (Meso Scale Discovery, MSD) were coated with 30 μl of mouse IL17RE/Fc chimeric protein at 75 ng/ml in PBS at 4° C. overnight. The next day a serial antibody dilution (concentrations from 0.001 to 100 nM) were pre-incubated for 30 min at RT with an equal volume of biotinylated human/cynomolgus or mouse IL-17C to determine an IC₅₀ concentration for receptor binding inhibition. After blocking of plates for 1 h with 2.5% BSA in PBST, previously formed antibody-ligand complexes were added for 1 h to coated IL17RE/Fc and receptor binding was detected via Streptavidin-ECL using MSD Sector Imager.
(§2) Results are shown in rows 3 and 4 in Table 2 and Table 3 respectively.

[2] = target: T2, Human IL-17C; assay: cell-based or functional assay
[3] = target: T3, Mouse IL-17C; assay: cell-based or functional assay
[4] = target: T1, Cynomolgus monkey IL-17C; assay: cell-based or functional assay
[5] = target: T2, Human IL-17C; assay: SET (solution equilibrium titration, ECL based), apparent affinity, bivalent IgG
Source text: (§3) Solution equilibrium titration (SET) was basically performed as described in the literature (Friquet et al., (1985) J. Immunol. Meth. 77: 305-19). In order to improve the sensitivity and accuracy of the SET method, it was transferred from classical ELISA to ECL based technology (Haenel et al. (2005) Anal Biochem. 339.1: 182-84).

[6] = target: T3, Mouse IL-17C; assay: as above
Source text: as §3

[7] = target: T1, Cynomolgus monkey IL-17C; assay: as above
Source text: as §3

[8] = target: T3, Mouse IL-17C; assay: MSD receptor inhibition assay, IgG format: IgG pre-incubated with biotinylated mouse IL-17C, binding to coated mouse IL17RE/Fc
Method: as §1, §2

[9] = target: T2, Human IL-17C; assay: MSD receptor inhibition assay, IgG format: IgG pre-incubated with biotinylated human IL-17C, binding to coated mouse IL17RE/Fc
Method: as §1, §2

[10] = target: T3, Mouse IL-17C; assay: MSD receptor inhibition assay, Fab format: Fab pre-incubated with biotinylated mouse IL-17C, binding to coated mouse IL17RE/Fc
Method: as §1

[11] = target: T1, Cynomolgus monkey IL-17C; assay: MSD receptor inhibition assay, Fab format: Fab pre-incubated with biotinylated cynomolgus IL-17C, binding to coated mouse IL17RE/Fc
Method: as §1, §2

[12] = target: T2, Human IL-17C; assay: SET (solution equilibrium titration, ECL based), monovalent affinity, Fab
Source text: as §3

[13] = target: T3, Mouse IL-17C; assay: as above
Source text: as §3

[14] = target: T1, Cynomolgus monkey IL-17C; assay: as above
Source text: as §3

[15] = target: T2, Human IL-17C; assay: MSD receptor inhibition assay, Fab format: Fab pre-incubated with biotinylated human IL-17C, binding to coated mouse IL17RE/Fc
Method: as §1, §2

[16] = target: T2, Human IL-17C; assay: cell-based or functional assay; remark: listed apart in the source
[17] = target: T3, Mouse IL-17C; assay: cell-based or functional assay; remark: listed apart in the source
[18] = target: T1, Cynomolgus monkey IL-17C; assay: cell-based or functional assay
[19] = target: T1, Cynomolgus monkey IL-17C; assay: MSD receptor inhibition assay, Fab format: Fab pre-incubated with biotinylated cynomolgus IL-17C, binding to coated mouse IL17RE/Fc
Method: as §1

Binder | IC50 [1] [nM] | EC50 [5] [nM] | EC50 [6] [nM] | IC50 [8] [nM] | IC50 [9] [nM] | IC50 [10] [nM] | Kd [12] [nM] | Kd [13] [nM] | Kd [14] [nM] | IC50 [15] [nM] | also measured
MAB#1 IgG1 (antibody, V domains shown, Human IgG1 with lambda light chain from the Ylanthia library) VH: EVQLLESGGGLVQPGGSLRLSCAASGFTVSDYAMHWVRQAPGKGLEWVSYIGGVGEGTQYAESVKGRFTISRDNSKNTLYLQMNSLRAEDTAVYYCARGFAIRYYGFDYWGQGTLVTVSS VL: SYELTQPPSVSVSPGQTASITCSGDKLGDKYAYWYQQKPGQSPVLVIYQDSKRPSGIPERFSGSNSGNTATLTISGTQAEDEADYYCQVFTFPLVTTVFGGGTKLTVLG | 0.044 | 0.019 | 0.387 | 0.055 | 0.059 |  |  |  |  |  | Keratinocyte assay (IC50; DEFB4A gene expression in primary human keratinocytes stimulated with hIL-17C and TNFα) [2]: 0.319 nM; NF-κB reporter assay (IC50) [2]: 0.0313 nM; Keratinocyte assay (IC50; CSF3 gene expression in mouse primary keratinocytes) [3]: 0.112 nM; NF-κB reporter assay (IC50) [3]: 0.0476 nM; NF-κB reporter assay (IC50) [4]: 0.0128 nM; EC50 [7]: 0.257 nM
MAB#1 Fab (Fab, V domains shown, Purified monovalent Fab; also called MAB#1 (Fab format)) VH: EVQLLESGGGLVQPGGSLRLSCAASGFTVSDYAMHWVRQAPGKGLEWVSYIGGVGEGTQYAESVKGRFTISRDNSKNTLYLQMNSLRAEDTAVYYCARGFAIRYYGFDYWGQGTLVTVSS VL: SYELTQPPSVSVSPGQTASITCSGDKLGDKYAYWYQQKPGQSPVLVIYQDSKRPSGIPERFSGSNSGNTATLTISGTQAEDEADYYCQVFTFPLVTTVFGGGTKLTVLG |  |  |  |  |  | 6 | 3.95 | 28 | 22 | 2.9 | IC50 [11]: 2.7 nM
MAB#2 IgG1 (antibody, V domains shown, Human IgG1 with lambda light chain from the Ylanthia library) VH: QVQLVESGGGLVKPGGSLRLSCAASGFTFSDHYISWIRQAPGKGLEWVSYISSSGSTTYYAESVKGRFTISRDNAKNSLYLQMNSLRAEDTAVYYCARQSYYFLPYFDVWGQGTLVTVSS VL: QSALTQPASVSGSPGQSITISCTGTSSDVGSYNLVSWYQQHPGKAPKLMIYEGSKRPSGVSNRFSGSKSGNTASLTISGLQAEDEADYYCASRGSRRVLYVFGGGTKLTVLG | 0.057 | 0.016 | 0.323 | 0.048 | 0.058 |  |  |  |  |  | Keratinocyte assay (IC50; DEFB4A gene expression in primary human keratinocytes stimulated with hIL-17C and TNFα) [16]: 0.28 nM; NF-κB reporter assay (IC50) [16]: 0.0185 nM; Keratinocyte assay (IC50; CSF3 gene expression in mouse primary keratinocytes) [17]: 0.051 nM; NF-κB reporter assay (IC50) [17]: 0.0648 nM; NF-κB reporter assay (IC50) [18]: 0.0129 nM
MAB#2 Fab (Fab, V domains shown, Purified monovalent Fab; also called MAB#2 (Fab format)) VH: QVQLVESGGGLVKPGGSLRLSCAASGFTFSDHYISWIRQAPGKGLEWVSYISSSGSTTYYAESVKGRFTISRDNAKNSLYLQMNSLRAEDTAVYYCARQSYYFLPYFDVWGQGTLVTVSS VL: QSALTQPASVSGSPGQSITISCTGTSSDVGSYNLVSWYQQHPGKAPKLMIYEGSKRPSGVSNRFSGSKSGNTASLTISGLQAEDEADYYCASRGSRRVLYVFGGGTKLTVLG |  |  |  |  |  | 0.15 | 0.037 | 0.46 | 0.063 | 0.076 | IC50 [19]: 0.05 nM
